Experimental findings from US20220411492A1 (QILU PHARMACEUTICAL, published 2022) are described below.

For assay [1], the target named is T1, human Claudin 18.2 (hCLDN18.2) (human, UniProt P56856-2 1-261). Nature of the assay: FACS, HEK293-hCLDN18.2 cells. (In general: Flow cytometry measures light scatter and fluorescence of single cells or particles in a stream.)
Assay [2] addresses T1, human Claudin 18.2 (hCLDN18.2). In words: FACS, HEK293-hCLDN18.2 cells. This is another data set of the same source.
The target is the same in assay [3]. Nature of the assay: cell-based or functional assay.
Assay [4] deals with murine CLDN18.2 (mCLDN18.2) (murine) (UniProt P56857). Nature of the assay: FACS, HEK293-mCLDN18.2 cells.
Assay [5] shares this target. Nature of the assay: FACS, HEK293-mCLDN18.2 cells. This is another data set of the same source.
The target in assay [6] is T1, human Claudin 18.2 (hCLDN18.2). Nature of the assay: FACS, HEK293-hCLDN18.2 cells. The source holds these as a separate data set.
The target is the same in assay [7]. Nature of the assay: FACS, PDX-hCLDN18.2 gastric cancer tumor tissue-derived cells.
The target is the same in assay [8]. In words: cell-based or functional assay. This is another data set of the same source.
Assay [9] has the same target. Nature of the assay: FACS, PDX-hCLDN18.2 gastric cancer tumor tissue-derived cells. This is another data set of the same source.
Assay [10] has the same target. Nature of the assay: FACS, HEK293-hCLDN18.2 cells. Here is the method:
Following transient expression in mammalian cell lines, affinity assays were performed using HEK293-hCLDN18.2 cells and monoclonal cell supernatants were screened by FACS.

Assay [11] has the same target. Nature of the assay: FACS, HEK293-hCLDN18.2 cells. As for the experimental part: (§1) Using flow cytometry measurement, the mean fluorescence intensity (hereinafter referred to as MFI) for each concentration was calculated by the software, and then the half binding concentration (EC₅₀) and the mean maximum fluorescence intensity (Top MFI) were calculated by GraphPad software, and the results were shown in Table 11.
This is another data set of the same source.

For assay [12] the target is unchanged. Nature of the assay: FACS, PDX-hCLDN18.2 gastric cancer tumor tissue-derived cells. As for the experimental part:
as §1

Assay [13] shares this target. Nature of the assay: cell-based or functional assay. The source holds these as a separate data set.
Assay [14] has the same target. Nature of the assay: cell-based or functional assay. The source holds these as a separate data set.

Substitutions are numbered along the chain they refer to. Names may count otherwise. Like-named read-outs stand apart in the source and are kept apart here.

In the case of “chimeric antibody ch-175D10 from patent CN103509110B”, the EC50 in assay [1] came to 0.881 nM; in [2], 0.156 µg/mL; in assay [4], 0.136 µg/mL; in [5], 1.01 nM; in assay [7] it was 24.9 nM; in [9] it was 63.9 nM. Moreover, the Mean maximum fluorescence intensity (Top MFI) amounted to 5450 MFI in assay [1]; 2840 MFI in [2]; 86400 MFI in [4]; 4190 MFI in [5]; 26900 MFI in [6]; 5700 MFI in [7]. Besides, the Mean maximum fluorescence intensity (Top MFI) in assay [9] stood at 7160 MFI. This molecule also yielded an ADCC EC50 in [3] of 0.021 µg/mL. The ADCC Maximum lysis (%) in [3] came to 31.8%. Further, the CDC EC50 was found to be 1.19 µg/mL in assay [3] and 1.55 µg/mL in assay [8]. In addition, the CDC Maximum lysis (%) in [3] was found to be 87.4%; in assay [8], 87.8%.

B1: ch-253C4-G33A (antibody, V domains shown)
VH: QVQLKQSGAELVRPGASVSLSCKTSGYIFTSYWIHWVKQRSGQGLEWIGRFYPGTGTAYYNENFEGKATLTADRSSSTAYMQLSSLKSDDSAVYFCTREGYGKGNAMDYWGQGTSVTVSS
VL: DIVMTQSPSSLTVTTGEKVTLSCKSSQSLLNSANQKNYLTWYQQKSGQPPELLIYWASTRESGVPDRFTGSGSGTDFTLTVSSVQAEDLAVYYCQNDYYFPFTFGGGTKLEIK
notes: also called chimeric antibody of 253C4-G33A
Take B1: in [10], a half-maximal response (EC50) required 0.187 µg/mL and the “Mean maximum fluorescence intensity (Top MFI)” value was 6840 MFI.

B2: ch-253C4-S32A (antibody, V domains shown)
VH: B1 VH
VL: B1 VL with S32A, A33G
notes: also called chimeric antibody of 253C4-S32A
Turning to B2, in [10], the concentration for a half-maximal effect (EC50) was 0.207 µg/mL and the “Mean maximum fluorescence intensity (Top MFI)” value was found to be 6890 MFI.

B3: ch-253C4-N31Q (antibody, V domains shown)
VH: B1 VH
VL: B1 VL with N31Q, A33G
notes: also called chimeric antibody of 253C4-N31Q
For B3, in assay [10], the EC50 came to 0.175 µg/mL and the “Mean maximum fluorescence intensity (Top MFI)” value turned out to be 6560 MFI.

B4: hu253C4-N31Q-1 (antibody, V domains shown)
VH: QVQLVQSGAEVKKPGASVKVSCKASGYIFTSYWIHWVRQAPGQGLEWMGRFYPGTGTAYYNENFEGRVTMTRDTSISTAYMELSRLRSDDTAVYYCAREGYGKGNSMDYWGQGTTVTVSS
VL: DIVMTQSPDSLAVSLGERATINCKSSQSLLQSGNQKNYLTWYQQKPGQPPKLLIYWASTRESGVPDRFSGSGSGTDFTLTISSLQAEDVAVYYCQNDYYFPFTFGGGTKLEIK
In assay [5], B4 displayed an EC50 of 0.19 µg/mL and a Mean maximum fluorescence intensity (Top MFI) of 65000 MFI. In assay [6], the EC50 came out at 0.216 nM and the Mean maximum fluorescence intensity (Top MFI) was determined as 23000 MFI. In [7], this molecule yielded an EC50 of 12 nM and a Mean maximum fluorescence intensity (Top MFI) of 16300 MFI. In assay [8], this molecule displayed an ADCC EC50 of 0.024 µg/mL, an ADCC Maximum lysis (%) of 54.9%, a CDC EC50 of 0.175 µg/mL and a CDC Maximum lysis (%) of 96.3%.

B5: hu299B2-S32A-1 (antibody, V domains shown)
VH: B4 VH with S31N, F51I, T57N, A58T, N63K, E65T, I76T, A79V, R85S, D89E
VL: B4 VL with Q31N, S32A, D97A, F100Y, F102Y
notes: also called humanized antibody hu299B2-S32A
Turning to B5, in [11], the midpoint of the response, the EC50, lay at 0.407 nM and the “Mean maximum fluorescence intensity (Top MFI)” value came to 29500 MFI. For the same molecule, in assay [12], a half-maximal effect (EC50) was put at 29.7 nM and the “Mean maximum fluorescence intensity (Top MFI)” value was found to be 25200 MFI. Further, in assay [13], the “ADCC EC50” value is 0.022 µg/mL and the “ADCC Maximum lysis (%)” value turned out to be 57.9%. Further, in [14], the “CDC EC50” value was found to be 0.125 µg/mL and the “CDC Maximum lysis (%)” value is 99.2%. In addition, in assay [5], the EC50 turned out to be 0.201 µg/mL and the Mean maximum fluorescence intensity (Top MFI) was found to be 88800 MFI.

B6: hu253C4-N31Q-3 (antibody, V domains shown)
VH: B4 VH with A24T, M70L, R72A, A97T
VL: B4 VL
In assay [5], B6 yielded an EC50 of 0.03 µg/mL and a Mean maximum fluorescence intensity (Top MFI) of 42100 MFI. Moreover, in assay [6], the EC50 amounted to 0.145 nM and the Mean maximum fluorescence intensity (Top MFI) is 18800 MFI. In assay [7], this molecule registered an EC50 of 25.6 nM and a Mean maximum fluorescence intensity (Top MFI) of 21600 MFI. In assay [8], this molecule registered an ADCC EC50 of 0.038 µg/mL, an ADCC Maximum lysis (%) of 70.3%, a CDC EC50 of 0.128 µg/mL and a CDC Maximum lysis (%) of 96.1%.

B7: hu253C4-N31Q-2 (antibody, V domains shown)
VH: B4 VH
VL: B4 VL with A19V, I21L, I81V, L84V
In assay [5], B7 gave an EC50 of 0.026 µg/mL and a Mean maximum fluorescence intensity (Top MFI) of 36800 MFI. In assay [6], this molecule gave an EC50 of 0.361 nM and a Mean maximum fluorescence intensity (Top MFI) of 29000 MFI. In [7], this molecule yielded an EC50 of 11.4 nM and a Mean maximum fluorescence intensity (Top MFI) of 15600 MFI. In assay [8], this molecule gave an ADCC EC50 of 0.037 µg/mL, an ADCC Maximum lysis (%) of 58.8%, a CDC EC50 of 0.149 µg/mL and a CDC Maximum lysis (%) of 97.5%.

B8: hu299B2-S32A-4 (antibody, V domains shown)
VH: QVQLVQSGAEVKKPGASVKVSCKTSGYIFTNYWIHWVRQAPGQGLEWMGRIYPGTGNTYYNEKFTGRVTLTADTSTSTVYMELSSLRSEDTAVYYCSREGYGKGNSMDYWGQGTTVTVSS
VL: B4 VL with Q31N, S32A, D97A, F100Y, F102Y
notes: as for B5
B8: in assay [11], the EC50 amounted to 0.318 nM and the “Mean maximum fluorescence intensity (Top MFI)” value was determined as 31200 MFI. Moreover, in assay [12], the EC50 amounted to 29.3 nM and the “Mean maximum fluorescence intensity (Top MFI)” value turned out to be 23000 MFI. In assay [13], the “ADCC EC50” value worked out at 0.024 µg/mL and the “ADCC Maximum lysis (%)” value was found to be 63.2%. For the same molecule, in assay [14], the “CDC EC50” value was found to be 0.123 µg/mL and the “CDC Maximum lysis (%)” value came to 99.9%. Further, in [5], the EC50 turned out to be 0.281 µg/mL and the Mean maximum fluorescence intensity (Top MFI) stood at 84900 MFI.

B9: hu299B2-S32A-2 (antibody, V domains shown)
VH: B8 VH with T24A, L70M, A72R, S97A
VL: B4 VL with I21M, Q31N, S32A, I54F, Y93H, D97A, F100Y, F102Y
notes: as for B5
In the case of B9, in assay [11], the EC50 came to 0.463 nM and the “Mean maximum fluorescence intensity (Top MFI)” value turned out to be 36700 MFI. In [12], the EC50 amounted to 24.6 nM and the “Mean maximum fluorescence intensity (Top MFI)” value is 22900 MFI. For the same molecule, in [13], the “ADCC EC50” value amounted to 0.028 µg/mL and the “ADCC Maximum lysis (%)” value is 68.1%. In assay [14], the “CDC EC50” value worked out at 0.129 µg/mL and the “CDC Maximum lysis (%)” value was found to be 99.7%. Moreover, in [5], the EC50 is 0.111 µg/mL and the Mean maximum fluorescence intensity (Top MFI) came out at 90400 MFI.

B10: hu299B2-S32A-3 (antibody, V domains shown)
VH: B8 VH with T24A, L70M, A72R, S97A
VL: B4 VL with A19V, I21M, Q31N, S32A, I54F, L84V, Y93H, D97A, F100Y, F102Y
notes: as for B5
With B10, in [11], it took 0.399 nM to reach a half-maximal effect (EC50) and the “Mean maximum fluorescence intensity (Top MFI)” value was found to be 40000 MFI. Also, in [12], the EC50 is 26.1 nM and the “Mean maximum fluorescence intensity (Top MFI)” value amounted to 24300 MFI. Moreover, in assay [13], the “ADCC EC50” value was 0.022 µg/mL and the “ADCC Maximum lysis (%)” value was determined as 69.1%. For the same molecule, in [14], the “CDC EC50” value is 0.092 µg/mL and the “CDC Maximum lysis (%)” value stood at 99.8%. In addition, in assay [5], the EC50 was 0.342 µg/mL and the Mean maximum fluorescence intensity (Top MFI) amounted to 103000 MFI.

B11: ch-299B2-G33A (antibody, V domains shown)
VH: QVQLKQSGPELVRPGASVKLSCKTSGYIFTNYWIHWVKQRSGQGLEWVVRIYPGTGNTYYNEKFTGKATLTADKSSSTAYMQLSSLKYEDSAVYFCSREGYGKGNSMDYWGQGTSVTVSS
VL: DIVMTQSPSSLTVTAGEKVTMNCKSSQSLLNSANQKNYLTWYQQKPGQPPKLLFYWASTRESGVPDRFTGSGSGTDFTLTISSVQAEDLAVYHCQNAYYYPYTFGGGTKLEMK
notes: also called chimeric antibody of 299B2-G33A
With B11, in assay [10], the EC50 was determined as 0.157 µg/mL and the “Mean maximum fluorescence intensity (Top MFI)” value worked out at 6870 MFI.

B12: ch-299B2-N31Q (antibody, V domains shown)
VH: B11 VH
VL: B11 VL with N31Q, A33G
notes: Light chain variable region mutant N31Q of 299B2; also called ch-299B2-X31Q; chimeric antibody of 299B2-N31Q
Consider B12, for which the binding result in assay [10] is reported as “binds”.

B13: ch-299B2-S32A (antibody, V domains shown)
VH: B11 VH
VL: B11 VL with S32A, A33G
notes: also called chimeric antibody of 299B2-S32A
As for B13, in assay [10], the EC50 stood at 1.31 µg/mL and the “Mean maximum fluorescence intensity (Top MFI)” value amounted to 6500 MFI.

In general, EC50 refers to the midpoint of the concentration-response curve. A low value points to an effect from little substance.
